Numbering of substitutions follows the chain as printed. Names may count otherwise.
T1: NKp46 mutant Supp8 (human, UniProt O76036 22-304)
T1 construct: Expressed in transfected HEK293T cells; also called supplementary mutant Supp8
T1 chain: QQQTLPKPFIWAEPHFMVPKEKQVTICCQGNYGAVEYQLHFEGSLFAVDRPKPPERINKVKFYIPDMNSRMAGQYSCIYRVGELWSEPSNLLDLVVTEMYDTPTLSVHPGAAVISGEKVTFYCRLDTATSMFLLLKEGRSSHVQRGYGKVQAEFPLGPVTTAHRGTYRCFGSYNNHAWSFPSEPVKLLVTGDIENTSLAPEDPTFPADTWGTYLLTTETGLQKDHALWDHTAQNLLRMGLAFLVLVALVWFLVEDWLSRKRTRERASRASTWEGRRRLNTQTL

T2: NKp46 mutant 19 (human, UniProt O76036 22-304)
T2 construct: Expressed in transfected HEK293T cells
T2 chain: T1 chain with A111P, A112E, I114A, S115A

B1: CD19-F9A-NKp46-3 (bispecific antibody, human IgG1, kappa)
chain 1: not shown
chain 2: not shown
chain 3: DIVMTQSPATLSVTPGDRVSLSCRASQSISDYLHWYQQKSHESPRLLIKYASQSISGIPSRFSGSGSGSDFTLSINSVEPEDVGVYYCQNGHSFPLTFGAGTKLELKASTKGPSVFPLAPSSKSTSGGTAALGCLVKDYFPEPVTVSWNSGALTSGVHTFPAVLQSSGLYSLSSVVTVPSSSLGTQTYICNVNHKPSNTKVDKRVEPKSCDKTH
notes: Heterotrimer with monomeric Fc (tandem CH3, N297S) and wild-type hinge cysteines
B2: CD19-F4-NKp46-3 (bispecific antibody)
chain: DIQLTQSPASLAVSLGQRATISCKASQSVDYDGDSYLNWYQQIPGQPPKLLIYDASNLVSGIPPRFSGSGSGTDFTLNIHPVEKVDAATYHCQQSTEDPWTFGGGTKLEIKGGGGSGGGGSGGGGSQVQLQQSGAELVRPGSSVKISCKASGYAFSSYWMNWVKQRPGQGLEWIGQIWPGDGDTNYNGKFKGKATLTADESSSTAYMQLSSLASEDSAVYFCARRETTTVGRYYYAMDYWGQGTTVTVSSGGGSSAPELLGGPSVFLFPPKPKDTLMISRTPEVTCVVVDVSHEDPEVKFNWYVDGVEVHNAKTKPREEQYSSTYRVVSVLTVLHQDWLNGKEYKCKVSNKALPAPIEKTISKAKGQPREPQVYTLPPSREEMTKNQVSLTCLVKGFYPSDIAVEWESNGQPENNYKTTPPVLDSDGSFFLYSKLTVDKSRWQQGNVFSCSVMHEALHNHYTQKSLSLSPGGGGGSGGGGSGGGGSGQPREPQVYTLPPSREEMTKNQVSLTCLVKGFYPSDIAVEWESNGQPENNYKTTPPVLDSDGSFFLYSKLTVDKSRWQQGNVFSCSVMHEALHNHYTQKSLSLSPGSTGSEVQLQQSGPELVKPGASVKISCKTSGYTFTEYTMHWVKQSHGKSLEWIGGISPNIGGTSYNQKFKGKATLTVDKSSSTAYMELRSLTSEDSAVYYCARRGGSFDYWGQGTTLTVSSVEGGSGGSGGSGGSGGVDDIVMTQSPATLSVTPGDRVSLSCRASQSISDYLHWYQQKSHESPRLLIKYASQSISGIPSRFSGSGSGSDFTLSINSVEPEDVGVYYCQNGHSFPLTFGAGTKLELK
notes: Single chain with tandem CH3 and N297S
B3: NKp46-1 (antibody, V domains shown)
VH: QVQLQQSGPELVKPGASVKMSCKASGYTFTDYVINWGKQRSGQGLEWIGEIYPGSGTNYYNEKFKAKATLTADKSSNIAYMQLSSLTSEDSAVYFCARRGRYGLYAMDYWGQGTSVTVSS
VL: DIQMTQTTSSLSASLGDRVTISCRASQDISNYLNWYQQKPDGTVKLLIYYTSRLHSGVPSRFSGSGSGTDYSLTINNLEQEDIATYFCQQGNTRPWTFGGGTKLEIK
notes: also called Antibody NKp46-1; parental human IgG1 chimeric antibody NKp46-1
B4: NKp46-9 (antibody, V domains shown)
VH: DVQLQESGPGLVKPSQSLSLTCTVTGYSITSDYAWNWIRQFPGNKLEWMGYITYSGSTNYNPSLKSRISITRDTSKNQFFLQLNSVTTEDTATYYCARCWDYALYAMDCWGQGTSVTVSS
VL: DIQMTQSPASLSASVGETVTITCRTSENIYSYLAWCQQKQGKSPQLLVYNAKTLAEGVPSRFSGSGSGTHFSLKINSLQPEDFGIYYCQHHYDTPLTFGAGTKLELK
notes: not in the list MOLECULES as an antibody; also called antibody NKp46-9; monoclonal antibody NKp46-9
B5: CD19-F1-NKp46-2 (bispecific antibody)
chain: DIQLTQSPASLAVSLGQRATISCKASQSVDYDGDSYLNWYQQIPGQPPKLLIYDASNLVSGIPPRFSGSGSGTDFTLNIHPVEKVDAATYHCQQSTEDPWTFGGGTKLEIKGGGGSGGGGSGGGGSQVQLQQSGAELVRPGSSVKISCKASGYAFSSYWMNWVKQRPGQGLEWIGQIWPGDGDTNYNGKFKGKATLTADESSSTAYMQLSSLASEDSAVYFCARRETTTVGRYYYAMDYWGQGTTVTVSSGGGSSAPELLGGPSVFLFPPKPKDTLMISRTPEVTCVVVDVSHEDPEVKFNWYVDGVEVHNAKTKPREEQYNSTYRVVSVLTVLHQDWLNGKEYKCKVSNKALPAPIEKTISKAKGQPREPQVYTKPPSREEMTKNQVSLSCLVKGFYPSDIAVEWESNGQPENNYKTTVPVLDSDGSFRLASYLTVDKSRWQQGNVFSCSVMHEALHNHYTQKSLSLSPGSTGSEVQLQESGPGLVKPSQSLSLTCTVTGYSITSDYAWNWIRQFPGNKLEWMGYITYSGSTSYNPSLESRISITRDTSTNQFFLQLNSVTTEDTATYYCARGGYYGSSWGVFAYWGQGTLVTVSAVEGGSGGSGGSGGSGGVDDIQMTQSPASLSASVGETVTITCRVSENIYSYLAWYQQKQGKSPQLLVYNAKTLAEGVPSRFSGSGSGTQFSLKINSLQPEDFGSYYCQHHYGTPWTFGGGTKLEIK
notes: Single chain F1 format; also called bi-specific antibody NKp46-2 (F1)
B6: CD19-F1-NKp46-4 (bispecific antibody)
chain: DIQLTQSPASLAVSLGQRATISCKASQSVDYDGDSYLNWYQQIPGQPPKLLIYDASNLVSGIPPRFSGSGSGTDFTLNIHPVEKVDAATYHCQQSTEDPWTFGGGTKLEIKGGGGSGGGGSGGGGSQVQLQQSGAELVRPGSSVKISCKASGYAFSSYWMNWVKQRPGQGLEWIGQIWPGDGDTNYNGKFKGKATLTADESSSTAYMQLSSLASEDSAVYFCARRETTTVGRYYYAMDYWGQGTTVTVSSGGGSSAPELLGGPSVFLFPPKPKDTLMISRTPEVTCVVVDVSHEDPEVKFNWYVDGVEVHNAKTKPREEQYNSTYRVVSVLTVLHQDWLNGKEYKCKVSNKALPAPIEKTISKAKGQPREPQVYTKPPSREEMTKNQVSLSCLVKGFYPSDIAVEWESNGQPENNYKTTVPVLDSDGSFRLASYLTVDKSRWQQGNVFSCSVMHEALHNHYTQKSLSLSPGSTGSQVQLQQSAVELARPGASVKMSCKASGYTFTSFTMHWVKQRPGQGLEWIGYINPSSGYTEYNQKFKDKTTLTADKSSSTAYMQLDSLTSDDSAVYYCVRGSSRGFDYWGQGTLVTVSAVEGGSGGSGGSGGSGGVDDIQMIQSPASLSVSVGETVTITCRASENIYSNLAWFQQKQGKSPQLLVYAATNLADGVPSRFSGSGSGTQYSLKINSLQSEDFGIYYCQHFWGTPRTFGGGTKLEIK
notes: Single chain F1 format
B7: CD19-F1-NKp46-3 (bispecific antibody)
chain: DIQLTQSPASLAVSLGQRATISCKASQSVDYDGDSYLNWYQQIPGQPPKLLIYDASNLVSGIPPRFSGSGSGTDFTLNIHPVEKVDAATYHCQQSTEDPWTFGGGTKLEIKGGGGSGGGGSGGGGSQVQLQQSGAELVRPGSSVKISCKASGYAFSSYWMNWVKQRPGQGLEWIGQIWPGDGDTNYNGKFKGKATLTADESSSTAYMQLSSLASEDSAVYFCARRETTTVGRYYYAMDYWGQGTTVTVSSGGGSSAPELLGGPSVFLFPPKPKDTLMISRTPEVTCVVVDVSHEDPEVKFNWYVDGVEVHNAKTKPREEQYNSTYRVVSVLTVLHQDWLNGKEYKCKVSNKALPAPIEKTISKAKGQPREPQVYTKPPSREEMTKNQVSLSCLVKGFYPSDIAVEWESNGQPENNYKTTVPVLDSDGSFRLASYLTVDKSRWQQGNVFSCSVMHEALHNHYTQKSLSLSPGSTGSEVQLQQSGPELVKPGASVKISCKTSGYTFTEYTMHWVKQSHGKSLEWIGGISPNIGGTSYNQKFKGKATLTVDKSSSTAYMELRSLTSEDSAVYYCARRGGSFDYWGQGTTLTVSSVEGGSGGSGGSGGSGGVDDIVMTQSPATLSVTPGDRVSLSCRASQSISDYLHWYQQKSHESPRLLIKYASQSISGIPSRFSGSGSGSDFTLSINSVEPEDVGVYYCQNGHSFPLTFGAGTKLELK
notes: Single chain F1 format; also called bi-specific antibody NKp46-3 (F1)

Biological target: T3, human FcRn (Example 10) (human, UniProt P55899 24-297; P61769 21-119, limits assumed)
T3 construct: Construct not described; Beta-2-microglobulin is not mentioned; also called recombinant FcRn proteins
Test: SPR, FcRn immobilized on CM5, Steady State

T3 sequence (P55899 24-297 limits assumed, form in doubt, chain 1 of 2): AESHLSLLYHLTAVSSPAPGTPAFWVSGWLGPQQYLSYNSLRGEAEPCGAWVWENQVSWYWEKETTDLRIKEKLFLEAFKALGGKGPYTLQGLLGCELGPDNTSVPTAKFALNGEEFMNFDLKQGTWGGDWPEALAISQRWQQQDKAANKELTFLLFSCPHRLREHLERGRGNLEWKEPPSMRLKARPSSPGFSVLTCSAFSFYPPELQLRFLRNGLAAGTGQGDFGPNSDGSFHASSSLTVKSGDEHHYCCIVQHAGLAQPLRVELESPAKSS
T3 sequence (P61769 21-119 limits assumed, form in doubt, chain 2 of 2): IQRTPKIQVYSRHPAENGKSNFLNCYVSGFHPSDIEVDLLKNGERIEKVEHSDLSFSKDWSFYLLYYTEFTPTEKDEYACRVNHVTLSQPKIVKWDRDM

Binder	Kd
B1	858 nM
B2	712 nM

Biological target: T1, NKp46 mutant Supp8
Test: flow cytometry on HEK293T cells transfected with NKp46 mutant Supp8 (P132A, E133A; printed 'Mutant S8'), antibody titrated 0.001-1 ug/ml

Binder	binding result
B3	binds
B4	binds

Biological target: T4, Human NKp46 recombinant proteins (human, UniProt O76036 22-258)
T4 construct: also called recombinant human NKp46 proteins
Test: SPR, bispecific captured on Protein-A chip, human NKp46 injected, 1:1 kinetic model
Procedure: SPR measurements were performed on a Biacore T100 apparatus (Biacore GE Healthcare) at 25° C. In all Biacore experiments HBS-EP+(Biacore GE Healthcare) and NaOH 10 mM served as running buffer and regeneration buffer respectively. Sensorgrams were analyzed with Biacore T100 Evaluation software. Protein-A was purchase from (GE Healthcare). Human NKp46 recombinant proteins were cloned, produced and purified at Innate Pharma.
Protein-A proteins were immobilized covalently to carboxyl groups in the dextran layer on a Sensor Chip CM5. The chip surface was activated with EDC/NHS (N-ethyl-N′-(3-dimethylaminopropyl) carbodiimidehydrochloride and N-hydroxysuccinimide (Biacore GE Healthcare)). Protein-A was diluted to 10 μg/ml in coupling buffer (10 mM acetate, pH 5.6) and injected until the appropriate immobilization level was reached (i.e. 2000 RU). Deactivation of the remaining activated groups was performed using 100 mM ethanolamine pH 8 (Biacore GE Healthcare).
Monovalent affinity study was done following a regular Capture-Kinetic protocol recommended by the manufacturer (Biacore GE Healthcare kinetic wizard). Seven serial dilutions of human NKp46 recombinant proteins, ranging from 6.25 to 400 nM were sequentially injected over the captured Bi-Specific antibodies and allowed to dissociate for 10 min before regeneration. The entire sensorgram sets were fitted using the 1:1 kinetic binding model.

Binder	Kd	koff	kon
B5	8.93 nM	0.00145 s⁻¹	162000 M⁻¹ s⁻¹
B6	4.85 nM	0.000653 s⁻¹	135000 M⁻¹ s⁻¹
B7	9.14 nM	0.000644 s⁻¹	70500 M⁻¹ s⁻¹
B1	32 nM	0.00669 s⁻¹	207000 M⁻¹ s⁻¹
B2	30 nM	0.011 s⁻¹	368000 M⁻¹ s⁻¹

Biological target: T2, NKp46 mutant 19
Test: flow cytometry on HEK293T cells transfected with NKp46 mutant 19 (I135A, S136A), antibody titrated 0.001-1 ug/ml

Binder	binding result
B3	binds
B4	binds
